A value given as a limit tells only on which side of the number the result lay.

This note sets out measurements from patent US5885797, “Polynucleotide sequences encoding proteins involved in myogenesis” (Fred Hutchinson Cancer Research Center, dated 1999).

Experiment [1] addresses T1, Myogenin (full length, mouse) (mouse, UniProt P12979). The experiment is described as follows: cell-based or functional assay.
Experiment [2] concerns the target T2, Myf5 (full length, mouse) (mouse, UniProt P24699). The experiment is described as follows: cell-based or functional assay.
Experiment [3] concerns the target MyoD (full length, mouse) (mouse, UniProt P10085). The experiment is described as follows: cell-based or functional assay.
In the next experiment the target is T3, VP16-I-mfb (mouse).
T3 chain: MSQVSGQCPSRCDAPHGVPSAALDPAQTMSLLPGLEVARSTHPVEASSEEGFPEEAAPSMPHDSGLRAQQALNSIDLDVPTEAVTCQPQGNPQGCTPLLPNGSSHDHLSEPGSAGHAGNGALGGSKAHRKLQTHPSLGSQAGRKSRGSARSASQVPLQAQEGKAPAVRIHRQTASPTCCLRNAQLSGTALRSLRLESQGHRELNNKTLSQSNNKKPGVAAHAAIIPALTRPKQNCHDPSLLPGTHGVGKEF
The experiment is described as follows: yeast hybrid assay, strain L40, β-galactosidase reporter.

In another experiment the target is T4, VP16-I-mfc (mouse).
T4 chain: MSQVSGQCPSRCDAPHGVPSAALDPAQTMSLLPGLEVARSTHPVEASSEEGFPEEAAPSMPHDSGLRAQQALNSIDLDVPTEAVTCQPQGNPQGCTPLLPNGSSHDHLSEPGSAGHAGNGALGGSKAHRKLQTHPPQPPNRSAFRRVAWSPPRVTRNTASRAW
Described as above.

Experiment [4] deals with T5, Lethal of Scute (AS-C T3) (Drosophila melanogaster (Fruit fly), UniProt P09774).
T5 sequence: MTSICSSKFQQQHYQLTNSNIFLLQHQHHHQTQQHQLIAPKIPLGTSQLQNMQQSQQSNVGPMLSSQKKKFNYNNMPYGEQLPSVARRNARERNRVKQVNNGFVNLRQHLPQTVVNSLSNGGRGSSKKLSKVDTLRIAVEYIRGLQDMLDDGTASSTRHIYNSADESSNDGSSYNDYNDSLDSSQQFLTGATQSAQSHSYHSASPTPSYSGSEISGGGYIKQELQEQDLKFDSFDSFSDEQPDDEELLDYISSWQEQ
Kind of experiment: yeast one-hybrid, strain L40, β-galactosidase reporter.

Experiment [5] concerns the target T1, Myogenin (full length, mouse). The description is as above.
Experiment [6] addresses T5, Lethal of Scute (AS-C T3). The experiment is described as above. The source holds these as a separate data set.
Experiment [7] addresses T2, Myf5 (full length, mouse). The experiment is described as follows: column 'Interaction with Myf5' of Table 4 (yeast hybrid assay of Table 3).
Experiment [8] deals with T2, Myf5 (full length, mouse). The experiment is described as follows: yeast hybrid assay, strain L40, β-galactosidase reporter.
The target in experiment [9] is T2, Myf5 (full length, mouse). The experiment is described as follows: yeast one-hybrid, strain L40, β-galactosidase reporter.

B1: I-mfc (other)
chain: MSQVSGQCPSRCDAPHGVPSAALDPAQTMSLLPGLEVARSTHPVEASSEEGFPEEAAPSMPHDSGLRAQQALNSIDLDVPTEAVTCQPQGNPQGCTPLLPNGSSHDHLSEPGSAGHAGNGALGGSKAHRKLQTHPPQPPNRSAFRRVAWSPPRVTRNTASRAW
Take B1: the “Relative CAT Activity (%), MCK-CAT (NIH3T3 cells)” value (“Relative CAT Activity (%), MCK-CAT” for short) was determined as 111% in experiment [1], 106% in [2] and 100% in [3]. The “Relative CAT Activity (%), 4RCAT (10T/2 cells)” value (“Relative CAT Activity (%), 4RCAT” for short) was 101% in [2] and 100% in [3].

B2: LexA-I-mfa (1-202) (other)
chain: MSQVSGQCPSRCDAPHGVPSAALDPAQTMSLLPGLEVARSTHPVEASSEEGFPEEAAPSMPHDSGLRAQQALNSIDLDVPTEAVTCQPQGNPQGCTPLLPNGSSHDHLSEPGSAGHAGNGALGGSKAHRKLQTHPSLGSQAGRKSRGSARSASQVPLQAQEDCCVHCILSCLFCEFLTLCNILLDCATCGSCSSEDSCLCCC
Consider B2, for which the β-galactosidase activity in the experiment with VP16-I-mfb and with VP16-I-mfc was below 0.1 arbitrary units throughout.

B3: I-mfa (other)
chain: MSQVSGQCPSRCDAPHGVPSAALDPAQTMSLLPGLEVARSTHPVEASSEEGFPEEAAPSMPHDSGLRAQQALNSIDLDVPTEAVTCQPQGNPQGCTPLLPNGSSHDHLSEPGSAGHAGNGALGGSKAHRKLQTHPSLGSQAGRKSRGSARSASQVPLQAQEDCCVHCILSCLFCEFLTLCNILLDCATCGSCSSEDSCLCCCCCGSGECADCDLPCDLDCGIVDACCESADCLEICMECCGLCFSS
As for B3, the entries for the “Relative CAT Activity (%), MCK-CAT” value in experiment [1], in experiment [2] and in [3] were 2%, 9% and 27%, respectively. Further, the results for the “Relative CAT Activity (%), 4RCAT” value in experiment [2] and in experiment [3] were 13% and 56%, respectively.

B4: LexA-I-mfa (other)
chain: MKALTARQQEVFDLIRDHISQTGMPPTRAEIAQRLGFRSPNAAEEHLKALARKGVIEIVSGASRGIRLLQEEEEGLPLVGRVAAGEPLLAQQHIEGHYQVDPSLFKPNADFLLRVSGMSMKDIGIMDGDLLAVHKTQDVRNGQVVVARIDDEVTVKRLKKQGNKVELLPENSEFKPIVVDLRQQSFTIEGLAVGVIRNGDWLMSQVSGQCPSRCDAPHGVPSAALDPAQTMSLLPGLEVARSTHPVEASSEEGFPEEAAPSMPHDSGLRAQQALNSIDLDVPTEAVTCQPQGNPQGCTPLLPNGSSHDHLSEPGSAGHAGNGALGGSKAHRKLQTHPSLGSQAGRKSRGSARSASQVPLQAQEDCCVHCILSCLFCEFLTLCNILLDCATCGSCSSEDSCLCCCCCGSGECADCDLPCDLDCGIVDACCESADCLEICMECCGLCFSS
Turning to B4, the figures for the β-galactosidase activity in the experiment with VP16-I-mfb and with VP16-I-mfc were 0.7 arbitrary units and 0.5 arbitrary units, respectively.

B5: LexA-I-mfa (87-202) (other)
chain: QPQGNPQGCTPLLPNGSSHDHLSEPGSAGHAGNGALGGSKAHRKLQTHPSLGSQAGRKSRGSARSASQVPLQAQEDCCVHCILSCLFCEFLTLCNILLDCATCGSCSSEDSCLCCC
As for B5, the figures for the β-galactosidase activity with VP16-I-mfb and with VP16-I-mfc were 0.2 arbitrary units and below 0.1 arbitrary units, respectively.

B6: I-mfb (other)
chain: MSQVSGQCPSRCDAPHGVPSAALDPAQTMSLLPGLEVARSTHPVEASSEEGFPEEAAPSMPHDSGLRAQQALNSIDLDVPTEAVTCQPQGNPQGCTPLLPNGSSHDHLSEPGSAGHAGNGALGGSKAHRKLQTHPSLGSQAGRKSRGSARSASQVPLQAQEGKAPAVRIHRQTASPTCCLRNAQLSGTALRSLRLESQGHRELNNKTLSQSNNKKPGVAAHAAIIPALTRPKQNCHDPSLLPGTHGVGKEF
As to B6, the figures for the “Relative CAT Activity (%), MCK-CAT” value in [1], in experiment [2] and in experiment [3] were 101%, 132% and 87%, respectively. Besides, the “Relative CAT Activity (%), 4RCAT” value is 105% in experiment [2] and 95% in [3].

B7: LexA-I-mfa (29-246) (other)
chain: MSLLPGLEVARSTHPVEASSEEGFPEEAAPSMPHDSGLRAQQALNSIDLDVPTEAVTCQPQGNPQGCTPLLPNGSSHDHLSEPGSAGHAGNGALGGSKAHRKLQTHPSLGSQAGRKSRGSARSASQVPLQAQEDCCVHCILSCLFCEFLTLCNILLDCATCGSCSSEDSCLCCCCCGSGECADCDLPCDLDCGIVDACCESADCLEICMECCGLCFSS
For the molecule B7, the β-galactosidase activity with VP16-I-mfb came to 0.7 arbitrary units; with VP16-I-mfc, 0.8 arbitrary units.

B8: LexA-I-mfb (other)
chain: MKALTARQQEVFDLIRDHISQTGMPPTRAEIAQRLGFRSPNAAEEHLKALARKGVIEIVSGASRGIRLLQEEEEGLPLVGRVAAGEPLLAQQHIEGHYQVDPSLFKPNADFLLRVSGMSMKDIGIMDGDLLAVHKTQDVRNGQVVVARIDDEVTVKRLKKQGNKVELLPENSEFKPIVVDLRQQSFTIEGLAVGVIRNGDWLMSQVSGQCPSRCDAPHGVPSAALDPAQTMSLLPGLEVARSTHPVEASSEEGFPEEAAPSMPHDSGLRAQQALNSIDLDVPTEAVTCQPQGNPQGCTPLLPNGSSHDHLSEPGSAGHAGNGALGGSKAHRKLQTHPSLGSQAGRKSRGSARSASQVPLQAQEGKAPAVRIHRQTASPTCCLRNAQLSGTALRSLRLESQGHRELNNKTLSQSNNKKPGVAAHAAIIPALTRPKQNCHDPSLLPGTHGVGKEF
Turning to B8, the values for the β-galactosidase activity (with VP16-I-mfc; in experiment [5]; in experiment [6]) were below 0.1 arbitrary units, 0.4 arbitrary units and 0.9 arbitrary units, respectively. Further, the binding result in [4] is reported as “no binding”.

B9: LexA-I-mfa (87-246) (other)
chain: QPQGNPQGCTPLLPNGSSHDHLSEPGSAGHAGNGALGGSKAHRKLQTHPSLGSQAGRKSRGSARSASQVPLQAQEDCCVHCILSCLFCEFLTLCNILLDCATCGSCSSEDSCLCCCCCGSGECADCDLPCDLDCGIVDACCESADCLEICMECCGLCFSS
B9 had a β-galactosidase activity in the experiment with VP16-I-mfb of 0.6 arbitrary units.

B10: LexA (other)
chain: MKALTARQQEVFDLIRDHISQTGMPPTRAEIAQRLGFRSPNAAEEHLKALARKGVIEIVSGASRGIRLLQEEEEGLPLVGRVAAGEPLLAQQHIEGHYQVDPSLFKPNADFLLRVSGMSMKDIGIMDGDLLAVHKTQDVRNGQVVVARIDDEVTVKRLKKQGNKVELLPENSEFKPIVVDLRQQSFTIEGLAVGVIRNGDWL
Take B10: the β-galactosidase activity in experiment [5] came to 0.6 arbitrary units.

B11: LexA-I-mfc (other)
chain: MKALTARQQEVFDLIRDHISQTGMPPTRAEIAQRLGFRSPNAAEEHLKALARKGVIEIVSGASRGIRLLQEEEEGLPLVGRVAAGEPLLAQQHIEGHYQVDPSLFKPNADFLLRVSGMSMKDIGIMDGDLLAVHKTQDVRNGQVVVARIDDEVTVKRLKKQGNKVELLPENSEFKPIVVDLRQQSFTIEGLAVGVIRNGDWLMSQVSGQCPSRCDAPHGVPSAALDPAQTMSLLPGLEVARSTHPVEASSEEGFPEEAAPSMPHDSGLRAQQALNSIDLDVPTEAVTCQPQGNPQGCTPLLPNGSSHDHLSEPGSAGHAGNGALGGSKAHRKLQTHPPQPPNRSAFRRVAWSPPRVTRNTASRAW
Turning to B11, the binding result in experiment [7] is listed as “no binding”. Besides, the β-galactosidase activity in the experiment with VP16-I-mfb is below 0.1 arbitrary units; in experiment [8], below 0.1 arbitrary units; in experiment [5] it was 0.3 arbitrary units; in [9] it was 0.4 arbitrary units.
